Measured values reported in publication PMC12160025, “Limitations of the radiotheranostic concept in neuroendocrine tumors due to lineage-dependent somatostatin receptor expression on hematopoietic stem and progenitor cells” (Theranostics, 2025).
Positions of bridges follow the written chain, without caps; N, C: chain ends. Non-standard residues stand in square brackets, D forms with d. Residues, ends and D or L forms follow the SMILES beside them. *: point of attachment. DOTA = O=C(O)CN1CCN(CC(=O)O)CCN(CC(=O)*)CCN(CC(=O)O)CC1; dPhe(4-NHCONH2) = NC(=O)Nc1ccc(C[C@@H](N)C(=O)O)cc1; Dihydroorotyl(S) = O=C1C[C@@H](C(=O)*)NC(=O)N1; Phe(4-Cl) = N[C@@H](Cc1ccc(Cl)cc1)C(=O)O; Phe(4-NH2) = Nc1ccc(C[C@H](N)C(=O)O)cc1

Assays:
[1] = tested on: human CD34+ HSPC subpopulations; assay: Cell proliferation (CellTrace Violet) and cell death after radioligand treatment; type: cell-based; conditions: 50 kBq/well, 4 days
Experimental: BMMCs were thawed in 90% IMDM with GlutaMAX, 10% FBS, and 20 µg/ml DNAse. Cells were washed and resuspended in cold FACS buffer for CD34+ isolation using the Miltenyi Biotec CD34 MicroBead Kit (#130-046-702) as per manufacturer instructions. CellTrace™ Violet (CTV, Thermo Scientific, C34557) staining was conducted based on the CD34^+ cell count (0.05 µl CTV/ml/ 1,500,000 cells) to determine the number of divisions undergone by a cell at the time of analysis. Following a 20 min incubation at 37 °C, the cells were centrifuged and resuspended in serum-free medium composed of IMDM with GlutaMAX and 20% BIT9500 (Stem Cell Technologies, 09500) supplemented with three cytokines involved in stem cell maintenance: SCF (50 ng/ml, PeproTech, 300-07), TPO (12.5 ng/ml, PeproTech, 300-18), andFlt3-L (50 ng/ml, PeproTech, 300-19). 30,000 cells were seeded in 24-well plates and analyzed by flow cytometry either immediately (day 0) or after a 4-day incubation period at 37 °C with 5% CO2 (day 4) following 30 min antibody staining and additional 15 min Annexin V (APC) binding (Biolegend, 640920). The antibodies used were as follow: CD34-APC-Cy7 (Biolegend, 343514), CD38-FITC (Biolegend, 356610), CD90-PE-Cy5 (Biolegend, 328112), CD123-PE (Biolegend, 306006), CD45RA-PE-Cy7 (Biolegend, 202316).
For radioligand treatment, cells were treated with 50 kBq/well (500 µl/well; 200 MBq/nmol) of^ 177Lu-DOTA-TOC or ^177Lu-DOTA-JR11 for the entire incubation period of 4 days. […] Untreated cells served as controls. A total of n=16 samples were analyzed.
In this experiment, flow cytometry was conducted on a Miltenyi MACSQuant analyzer equipped with three lasers - blue (488 nm, 30 mW), red (640 nm, 20mW), and violet (405 nm, 40 mW). For each sample, 50,000 events were recorded. MACSQuantify™ Software was used for data acquisition and Flowjo 9.0-10.10 (BD Biosciences, USA) was employed for flow cytometric data analysis. […] To simplify the comparison between groups, we calculated a “proliferation score” per sample. The proliferation score was defined as the weighted sum of all proliferations using the formula: "Proliferation score = 1*(% one division) + 2*(% two divisions) + 3*(% three division) + 4*(% four division) + 5*(% five divisions) + 6*(% six division) + 7* (% > six divisions). A higher weighted sum indicated more cell proliferation events.

[2] = human, in vivo; cited from earlier work
[3] = human, in vivo; cited from earlier work; remark: listed apart in the source
[4] = high-sensitivity samples (n = 8)

C[C@@H](O)[C@@H]1NC(=O)[C@H](CCCCN)NC(=O)[C@@H](Cc2ccc(NC(N)=O)cc2)NC(=O)[C@H](Cc2ccc(NC(=O)[C@@H]3CC(=O)NC(=O)N3)cc2)NC(=O)[C@H](NC(=O)[C@H](Cc2ccc(Cl)cc2)NC(=O)CN2CCN(CC(=O)O)CCN(CC(=O)O)CCN(CC(=O)O)CC2)CSSC[C@@H](C(=O)N[C@H](Cc2ccc(O)cc2)C(N)=O)NC1=O [^177Lu-DOTA-JR11, metal not drawn] ({DOTA}-[Phe(4-Cl)][dC][Phe(4-NH2)](Dihydroorotyl(S))[dPhe(4-NHCONH2)]KTC[dY]-NH2; disulfide 2-7 (inferred); C-terminus assumed)
Cell death compared to untreated cells ([1]; HSPC subpopulations): highest rates of cell death
Proliferation compared to untreated cells, across all subpopulations ([1]; n = 16, all HSPC subpopulations): 69-79%
Proliferation in HSC relative to untreated, mean ± SD [1, 4]: 42 ± 17%
Proliferation in HSC relative to untreated, median [1, 4]: 44%
Patients with prolonged grade 4 hematotoxicity [2]: 4 of 7
Incidence of t-MN [3]: 5%
Patients with t-MN [3]: 2/40
